{
  "source": "paper doi:10.1101/2025.10.12.681846v1",
  "about": "(bioRxiv, 2025)",
  "key": {"[1]": {"test_system": "diabetic mice", "assay": "Toxicity evaluation and histomorphology in mice", "type": "in vivo", "details": "one week post-injection, 10 mg/kg"}, "[2]": {"target": "human IgG1-Fc (Homo sapiens, UniProt P01857)", "assay": "SPR binding to human IgG1-Fc", "details": "read-out: KD for human IgG1-Fc"}, "[3]": {"target": "T1, human nostrin (Homo sapiens, UniProt Q8IVI9)", "T1 sequence (Q8IVI9 1-506)": "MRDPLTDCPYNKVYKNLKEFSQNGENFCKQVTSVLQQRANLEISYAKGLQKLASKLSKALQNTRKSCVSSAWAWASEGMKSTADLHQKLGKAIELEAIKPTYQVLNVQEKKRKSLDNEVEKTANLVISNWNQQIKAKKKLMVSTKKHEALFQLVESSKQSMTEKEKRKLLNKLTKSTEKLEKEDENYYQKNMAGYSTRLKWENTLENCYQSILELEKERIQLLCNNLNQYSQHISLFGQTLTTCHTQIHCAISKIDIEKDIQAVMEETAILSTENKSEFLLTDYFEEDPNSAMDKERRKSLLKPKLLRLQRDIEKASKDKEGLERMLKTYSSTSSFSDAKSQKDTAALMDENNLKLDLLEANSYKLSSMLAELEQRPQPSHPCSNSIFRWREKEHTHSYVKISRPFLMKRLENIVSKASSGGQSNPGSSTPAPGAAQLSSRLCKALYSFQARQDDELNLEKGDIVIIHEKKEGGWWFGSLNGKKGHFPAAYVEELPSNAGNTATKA", "assay": "SPR binding to human nostrin", "details": "read-out: KD for human nostrin"}, "[4]": {"test_system": "type 1 diabetic minipigs", "assay": "Type 1 diabetes treatment study in minipigs", "type": "in vivo, Bama minipigs", "details": "n = 3; statistical time 0-168 h for insulin-129 and 0-24 h for Lantus"}, "[5]": {"test_system": "type 1 diabetic minipigs", "assay": "In vivo blood glucose-responsive insulin release in minipigs", "details": "for BG rise within 30 minutes: one day after insulin-129, i.v. glucose infusion"}, "[6]": {"test_system": "STZ-induced type 1 diabetic mice", "assay": "Long-term therapy as weekly formulation in diabetic mice", "type": "in vivo, C57BL/6 mice", "details": "for BG drop in the first few hours after injection: n = 5"}, "[7]": {"target": "mouse IgG1-Fc (Mus musculus, UniProt P01868)", "sequence (P01868 98-324 limits assumed)": "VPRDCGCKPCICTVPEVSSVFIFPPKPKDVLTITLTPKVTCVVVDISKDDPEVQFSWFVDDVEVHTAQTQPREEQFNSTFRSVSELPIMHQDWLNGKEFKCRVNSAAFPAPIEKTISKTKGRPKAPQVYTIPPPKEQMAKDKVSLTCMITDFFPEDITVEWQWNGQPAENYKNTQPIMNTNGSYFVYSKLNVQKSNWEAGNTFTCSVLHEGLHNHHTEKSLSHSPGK", "assay": "SPR binding to mouse IgG1-Fc", "details": "for Kd: read-out: KD for IgG1-Fc, SPR, 25 °C, DPBS pH 7.4"}, "[8]": {"assay": "Pharmacokinetics after intravenous injection in healthy mice", "type": "in vivo, C57BL/6J mice", "details": "i.v. 1 nmol/kg, two-compartment model, n = 5"}, "[9]": {"assay": "Pharmacokinetic studies in diabetic minipigs", "type": "in vivo, Bama minipigs", "details": "s.c., two-compartmental model, n = 3"}, "[10]": {"test_system": "STZ-induced type 1 diabetic mice", "assay": "Type 1 diabetes treatment study in mice", "type": "in vivo, C57BL/6 mice"}, "[11]": {"assay": "Pharmacokinetics after subcutaneous injection in diabetic mice", "type": "in vivo", "details": "s.c. 12 mg/kg"}, "[12]": {"test_system": "STZ-induced type 1 diabetic mice", "assay": "Isoglycaemic clamp at hyperglycaemia in diabetic mice", "type": "in vivo", "details": "BG clamped at 400 mg/dL; one day after 12 mg/kg; n = 5"}, "[13]": {"test_system": "type 1 diabetic minipigs", "assay": "Fully automated insulin delivery system in diabetic minipigs", "type": "in vivo", "details": "48 h"}, "[14]": {"test_system": "type 1 diabetic mice", "assay": "Intraperitoneal glucose tolerance test in diabetic mice", "type": "in vivo", "details": "i.p. glucose 1.5 g/kg, n = 5"}, "[15]": {"test_system": "type 1 diabetic mice", "assay": "In vivo glucose-responsive insulin release in mice", "details": "for initial PIL: before glucose 3 g/kg"}, "[16]": {"details": "five days after 12 mg/kg, n = 5"}, "[17]": {"details": "one day after 12 mg/kg, i.p. glucose 3 g/kg"}, "[18]": {"details": "one day after 12 mg/kg, i.p. glucose 3 g/kg, n = 5"}},
  "note": "Read-outs that look alike come from different tables or passages of the source.",
  "data": [
    {"substance": "insulin-129: recombinant human insulin with 4-carboxy-3-fluorophenylboronic acid (FPBA) covalently conjugated at A1 and B29 sites", "values": [
      {"measurement": "histomorphological analysis of major organs by H&E staining", "setting": "[1]", "value": "no apparent pathological alterations"},
      {"measurement": "Kd", "setting": "[2]", "value": 36.7, "unit": "nM"},
      {"measurement": "Kd", "setting": "[3]", "value": 241, "unit": "nM"},
      {"measurement": "time BG remained within the target range (70 to 200 mg/dL)", "setting": "[4]", "value": 73.0, "unit": "%"},
      {"measurement": "baseline serum insulin-129 level", "setting": "[5]; Pig I", "value": 369.1, "unit": "μU/mL"},
      {"measurement": "peak serum insulin-129 level", "setting": "[5]; Pig I, glucose infusion", "value": 907.3, "unit": "μU/mL"},
      {"measurement": "baseline serum insulin-129 level", "setting": "[5]; Pig II", "value": 375.5, "unit": "μU/mL"},
      {"measurement": "peak serum insulin-129 level", "setting": "[5]; Pig II, glucose infusion", "value": 1108.0, "unit": "μU/mL"},
      {"measurement": "baseline serum insulin-129 level", "setting": "[5]; Pig III", "value": 430.6, "unit": "μU/mL"},
      {"measurement": "peak serum insulin-129 level", "setting": "[5]; Pig III, glucose infusion", "value": 1520.5, "unit": "μU/mL"},
      {"measurement": "BG rise within 30 minutes", "setting": "[5]; Pig Ⅰ", "value": 399.6, "unit": "mg/dL"},
      {"measurement": "BG rise within 30 minutes", "setting": "[5]; Pig Ⅱ", "value": 316.8, "unit": "mg/dL"},
      {"measurement": "BG rise within 30 minutes", "setting": "[5]; Pig Ⅲ", "value": 599.4, "unit": "mg/dL"},
      {"measurement": "BG by 45 minutes", "setting": "[5]; Pigs Ⅰ, Ⅱ and Ⅲ", "value": "below 200 mg/dL"},
      {"measurement": "rise of serum insulin-129 level from baseline", "setting": "[5]; glucose infusion, Pigs I, II and III", "value": "approximately threefold"},
      {"measurement": "normoglycaemia maintained by each injection", "setting": "[6]; 10 mg/kg then three weekly 4.8 mg/kg s.c.", "value": "one week"},
      {"measurement": "time remaining effective before BG returned to original level", "setting": "[6]; after the fourth injection", "value": "more than 800 hours"},
      {"measurement": "BG drop in the first few hours after injection", "setting": "[6]; first injection (10 mg/kg s.c.)", "value": "89.6 ± 13.1", "unit": "mg/dL"},
      {"measurement": "BG drop in the first few hours after injection", "setting": "[6]; fourth weekly injection (4.8 mg/kg s.c.)", "value": "78.8 ± 8.8", "unit": "mg/dL"},
      {"measurement": "stabilised BG", "setting": "[6]; one day after the fourth injection", "value": "approximately 150 mg/dL"},
      {"measurement": "BG drop in the first few hours after injection", "setting": "[6]; second weekly injection (4.8 mg/kg s.c.)", "value": "79.6 ± 12.4", "unit": "mg/dL"},
      {"measurement": "BG drop in the first few hours after injection", "setting": "[6]; third weekly injection (4.8 mg/kg s.c.)", "value": "77.8 ± 5.4", "unit": "mg/dL"},
      {"measurement": "increase in KD for IgG1-Fc", "setting": "[7]; glucose from 5 to 20 mM", "value": 5.0, "unit": "fold"},
      {"measurement": "Kd", "setting": "[7]; 5 mM glucose", "value": 137, "unit": "nM"},
      {"measurement": "Kd", "setting": "[7]; 10 mM glucose", "value": 276, "unit": "nM"},
      {"measurement": "Kd", "setting": "[7]; 20 mM glucose", "value": 691, "unit": "nM"},
      {"measurement": "Kd", "setting": "[7]; absence of glucose", "value": 42.4, "unit": "nM"},
      {"measurement": "average t1/2β", "setting": "[8]", "value": "112.5 ± 17.4", "unit": "h"},
      {"measurement": "half-life", "setting": "[9]", "value": "127.5 ± 36.6", "unit": "h"},
      {"measurement": "lowest average BG level", "setting": "[10]; one hour after s.c. 12 mg/kg, mean ± s.d., n = 5, SD", "value": "76.0 ± 6.4", "unit": "mg/dL"},
      {"measurement": "treatment duration among the three insulin analogues", "setting": "[10]; s.c. 4 mg/kg, insulin-1, insulin-29 and insulin-129, n = 5", "value": "longest duration"},
      {"measurement": "hypoglycaemia (BG < 70 mg/dL)", "setting": "[10]; s.c. 4, 8 and 12 mg/kg, any mouse", "value": "No hypoglycaemia"},
      {"measurement": "extension of normoglycaemia compared with insulin glargine", "setting": "[10]; single injection", "value": "approximately 47.5 folds"},
      {"measurement": "time kept normoglycaemic", "setting": "[10]; single s.c. 4 mg/kg, n = 5", "value": 46, "unit": "h"},
      {"measurement": "time kept normoglycaemic", "setting": "[10]; single s.c. 8 mg/kg, n = 5", "value": 142, "unit": "h"},
      {"measurement": "time kept normoglycaemic", "setting": "[10]; single s.c. 12 mg/kg, n = 5", "value": 190, "unit": "h"},
      {"measurement": "time to peak plasma insulin-129 level", "setting": "[11]; ELISA", "value": "within one hour"},
      {"measurement": "peak average plasma insulin-129 level (PIL)", "setting": "[11]; ELISA, n = 5", "value": "1320.0 ± 41.3", "unit": "μU/mL"},
      {"measurement": "t1/2α", "setting": "[11]; two-compartment model, n = 5", "value": "5.4 ± 1.3", "unit": "h"},
      {"measurement": "t1/2β", "setting": "[11]; two-compartment model, n = 5", "value": "147.8 ± 16.8", "unit": "h"},
      {"measurement": "mean glucose infusion rate compared with insulin glargine (5 U/kg)", "setting": "[12]", "value": "comparable mean glucose infusion rates"},
      {"measurement": "BG levels below 50 mg/dL", "setting": "[13]; first of three minipigs", "value": 0, "unit": "%"},
      {"measurement": "BG levels below 50 mg/dL, average", "setting": "[13]; mean ± s.d., n = 3, SD", "value": "1.7 ± 2.2", "unit": "%"},
      {"measurement": "BG levels below 50 mg/dL", "setting": "[13]; second of three minipigs", "value": 1.0, "unit": "%"},
      {"measurement": "BG levels below 50 mg/dL", "setting": "[13]; third of three minipigs", "value": 4.2, "unit": "%"},
      {"measurement": "BG before glucose administration", "setting": "[14]; day 1 after 12 mg/kg", "value": "96.8 ± 19.7", "unit": "mg/dL"},
      {"measurement": "peaking BG within 15 minutes", "setting": "[14]; day 1 after 12 mg/kg", "value": "194.8 ± 31.9", "unit": "mg/dL"},
      {"measurement": "BG before glucose administration", "setting": "[14]; day 5 after 12 mg/kg", "value": "163.1 ± 27.7", "unit": "mg/dL"},
      {"measurement": "peaking BG within 15 minutes", "setting": "[14]; day 5 after 12 mg/kg", "value": "310.3 ± 44.2", "unit": "mg/dL"},
      {"measurement": "synchronised increase in insulin level upon glucose injection", "setting": "[15]; STZ-induced type 1 diabetic mice, summary statement", "value": "more than 3 fold"},
      {"measurement": "initial PIL", "setting": "[15]; [16]", "value": "210.2 ± 31.7", "unit": "μU/mL"},
      {"measurement": "peak PIL", "setting": "[15]; five days after 12 mg/kg, i.p. glucose 3 g/kg, n = 5", "value": "573.7 ± 40.0", "unit": "μU/mL"},
      {"measurement": "PIL after decline within 120 minutes", "setting": "[15]; [16]", "value": "204.3 ± 52.0", "unit": "μU/mL"},
      {"measurement": "initial PIL", "setting": "[15]; one day after 12 mg/kg, n = 5", "value": "258.6 ± 37.6", "unit": "μU/mL"},
      {"measurement": "BG by 45 minutes", "setting": "[15]; [17]", "value": "below 200 mg/dL"},
      {"measurement": "increase in PIL", "setting": "[15]; [17]", "value": "approximately 4.2 fold"},
      {"measurement": "BG spike at 30 minutes", "setting": "[15]; [18]", "value": "310.7 ± 29.2", "unit": "mg/dL"},
      {"measurement": "peak PIL", "setting": "[15]; [18]", "value": "1080.4 ± 49.6", "unit": "μU/mL"},
      {"measurement": "PIL after decline", "setting": "[15]; one day after 12 mg/kg, in tandem with the BG reduction, n = 5", "value": "257.3 ± 45.2", "unit": "μU/mL"}
    ]}
  ]
}
